# Data reported in patent US20230190870A1, “Method for Treating Lysosomal Storage Diseases with Histatin Peptides” (THE BOARD OF TRUSTEES OF THE UNIVERSITY OF ILLINOIS, priority 2020, published 2023).
# Square brackets hold non-standard residues; d marks the D form. Ends that are not written are not given here. pS = N[C@@H](COP(=O)(O)O)C(=O)O
# T1: Synthetic TMEM97 (108-176) peptide
# T1 construct: Synthetic peptide; also called full C-terminal synthetic TMEM97
# T1 peptide: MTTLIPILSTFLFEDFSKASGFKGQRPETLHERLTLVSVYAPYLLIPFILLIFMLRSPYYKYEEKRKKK
# T2: Synthetic TMEM97 (144-176) peptide
# T2 construct: Synthetic peptide; also called (predicted) cytoplasmic segment
# T2 peptide: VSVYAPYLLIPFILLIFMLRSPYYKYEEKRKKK
# T3: Synthetic TMEM97 (108-143) peptide
# T3 construct: Synthetic peptide; also called (predicted) luminal segment
# T3 peptide: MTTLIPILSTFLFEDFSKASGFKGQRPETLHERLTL
# B1: Histatin 1 (Hst1) (peptide)
# peptide: D[pS]HEKRHHGYRRKFHEKHHSHREFPFYGDYGSNYLYDN
# notes: Synthetic linear peptide made by Fmoc solid-phase synthesis; also called Hst1(1-38); H1
# B2: Hst1 scrambled peptide (Hst1SP) (peptide)
# peptide: HYHKFHRYYDPGSNLYKEHNHGFHHGYKDEFRRE[pS]RDS
# notes: Synthetic scrambled control of Hst1; also called scrambled peptide control version of Hst1
# Legend:
# [1] = molecular target: T4, TMEM97 (S2R) containing HEK293T membranes (Homo sapiens, UniProt Q5BJF2); assay: Radioligand binding/competition assay with [3H]-DTG (UNC PDSP); settings: secondary radioligand binding assay; hot ligand [3H]-DTG
# T4 construct: expressed in transfected cells; host or cells: HEK293T (transient overexpression; membranes prepared by UNC PDSP)
# T4 sequence (Q5BJF2 whole entry, species assumed): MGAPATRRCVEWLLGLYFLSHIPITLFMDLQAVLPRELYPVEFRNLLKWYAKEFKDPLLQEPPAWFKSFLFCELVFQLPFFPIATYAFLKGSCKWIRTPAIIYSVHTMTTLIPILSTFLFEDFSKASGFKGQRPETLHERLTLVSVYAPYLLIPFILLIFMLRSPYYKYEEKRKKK
# human corneal epithelium = assay: Hyperosmolarity-induced apoptotic signals (Caspase 3/7); assay type: cell-based; settings: 450 mOsm
# Source text: (§1) Apoptosis. […] BAK and hOsm are standard inducers of corneal epithelial and neuronal cell death and toxicity, phenomena which are associated with ocular surface pain and chronic pain syndromes.
# [2] = test system: Human corneal epithelial cells; assay: Calcium Green-2 calcium signaling in human corneal epithelial cells; assay type: cell-based
# Experimental: Calcium Signaling. Human corneal epithelial cells were treated with Hst1 or Hst5, stained with Calcium Green-2, and relative fluorescence intensity was monitored at 1, 2 and 4 hours. […] This normalization of cellular calcium levels seen after toxicity from benzalkonium chloride treatment is analogous to toxic effects seen in chronic pain and other conditions. As such, histatin peptides may of use in the amelioration of chronic pain.
# [3] = test system: Human corneal epithelial cells; assay: Cell viability of BAK-treated human corneal epithelial cells; assay type: cell-based; settings: benzalkonium chloride (BAK) treatment
# Source text: as §1
# HCE cells = assay: Immunofluorescence imaging of internalization and localization; assay type: cell-based, human; settings: 24 hours after exposure
# Experimental: Immunofluorescence Imaging. HCE cells were seeded on glass coverslips (Fisher Scientific Co.; Pittsburgh, Pa.) within a 6-well plate at 3×10^5 (cells/well) seeding density. […] HCE cells were then fixed in 3.7% paraformaldehyde, permeabilized with phosphate-buffered saline (PBS) containing 0.2% TRITON™ X-100 for 5 minutes, and washed three times for 5 minutes each time in PBS. For blocking, cells were and incubated at room temperature for 30 minutes with 5% bovine serum albumin (BSA) and 5% normal goat serum in PBS. For the Endoplasmic Reticulum (ER) staining, a Cytopainter ER staining kit (Abcam; Cambridge, Mass.) was used, following the manufacturer's instructions. After washing with 1×Assay buffer, cells were incubated with Green Detection Reagent to cover the monolayer of cells. For the detection of Hst1 and TMEM97, mouse anti-Hst1 antibody (Abcam; Cambridge, Mass.), rabbit primary antibody against Hst1 (Mybiosource; San Diego, Calif.), and rabbit anti-TMEM97 antibody (Novus Bio.; Littleton, Colo.) were used. Cells were incubated overnight at 4° C. with primary antibodies, washed three times for 5 minutes each time in PBS before incubation with secondary antibodies for 30 minutes. Cells were then counterstained with 1 μg/mL 4′,6-diamidino-2-phenylindole (DAPI) solution in PBS for 3 minutes, then washed three times with PBS containing 0.05% TRITON™ X-100 for 5 minutes each time, twice with PBS for 5 minutes each time, and once with distilled water for 10 seconds. The cells were mounted in Fluoro gel with Tris buffer (Electron Microscopy Sciences; Hatfield, Pa.) and observed under a confocal microscope (Zeiss LSM 710 Confocal Microscope; Oberkochen, Germany) using a 40×objective. Fluorescent dye sold under the tradename ALEXA FLUOR® 488 NHS Ester (Molecular Probes; Carlsbad, Calif.) was used for making Alexa-488 coupled synthetic Hst1.
# Transfection/Knock-Down of TMEM97. Sub-confluent monolayers of HCE cells in grown in 35-mm six-well plates were transfected with reaction mixtures composed of 100 pmol of small interfering RNA (siRNA) to TMEM97 (Santa Cruz Biotechnology; Dallas, Tex.) for 48 hours and 5 μL of transfection reagent sold under the tradename LIPOFECTAMINE® 2000 (Invitrogen; Carlsbad, Calif.) in culture medium sold under the tradename OPTI-MEMO media (Gibco Life Technologies; Grand Island, N.Y.). Complexes were incubated for 20 minutes at 24° C. and then added to cells at 37° C. Incubation was continued for 24 to 48 hours at 37° C. in 5% CO2. Knock-down (KD) of TMEM97 was confirmed by western blot analysis using a rabbit anti-TMEM97 antibody (Novus Bio.; Littleton, Colo.). […]
# Candida albicans = settings: cited from earlier work
# [4] = molecular target: T5, GST-TMEM97 (108-176), recombinant from wheat germ (Abnova) (UniProt Q5BJF2 108-176); assay: SPR
# T5 construct: not shown: GST tag
# [5] = molecular target: T1, Synthetic TMEM97 (108-176) peptide; assay: SPR
# [6] = molecular target: T2, Synthetic TMEM97 (144-176) peptide; assay: SPR
# [7] = molecular target: T3, Synthetic TMEM97 (108-143) peptide; assay: SPR
# [8] = molecular target: T1, Synthetic TMEM97 (108-176) peptide; assay: ITC, Hst1 titrated into synthetic TMEM97 (108-176); ITC, not SPR; TMEM97 (108-176)
# [9] = molecular target: T2, Synthetic TMEM97 (144-176) peptide; assay: ITC, Hst1 titrated into the C-terminal TMEM97 peptide (taken as 144-176)
# [10] = molecular target: T1, Synthetic TMEM97 (108-176) peptide; assay: ITC, Hst1 titrated into synthetic TMEM97 (108-176)
# [11] = molecular target: T2, Synthetic TMEM97 (144-176) peptide; assay: SPR, synthetic TMEM97 (144-176) immobilized, Hst1 as analyte; SPR; synthetic TMEM97 (144-176)
# [12] = molecular target: T2, Synthetic TMEM97 (144-176) peptide; assay: ITC, Hst1 titrated into the C-terminal TMEM97 peptide (taken as 144-176); ITC, not SPR; C-terminal fragment taken as 144-176
# [13] = molecular target: T5, GST-TMEM97 (108-176), recombinant from …; assay: SPR, GST-TMEM97 (108-176) immobilized on CM5 chip, Hst1 as analyte; GST-tagged wheat-germ TMEM97 (108-176); SPR
# [14] = molecular target: T1, Synthetic TMEM97 (108-176) peptide; assay: SPR, synthetic TMEM97 (108-176) immobilized, Hst1 as analyte; SPR; synthetic TMEM97 (108-176)
# [15] = molecular target: T6, Recombinant full-length TMEM97 (from HEK293 cells, OriGene) (UniProt Q5BJF2 1-176); assay: SPR, TMEM97 immobilized on CM5 chip
# T6 construct: Bought protein, said to be full-length; Immobilized on a CM5 chip; also called MAC30
molecule,measurement,setting,value
CC(C)C[C@H](NC(=O)[C@H](Cc1ccc(O)cc1)NC(=O)[C@H](CC(N)=O)NC(=O)[C@H](CO)NC(=O)[C@H](CCCNC(=N)N)NC(=O)[C@H](Cc1ccc(O)cc1)NC(=O)CNC(=O)[C@H](CCCNC(=N)N)NC(=O)[C@H](Cc1c[nH]cn1)NC(=O)[C@H](CO)NC(=O)[C@H](Cc1c[nH]cn1)NC(=O)[C@H](Cc1c[nH]cn1)NC(=O)[C@H](CCCCN)NC(=O)[C@H](CCC(=O)O)NC(=O)[C@H](Cc1c[nH]cn1)NC(=O)[C@H](Cc1ccccc1)NC(=O)[C@H](CCCCN)NC(=O)[C@H](CCCNC(=N)N)NC(=O)[C@H](CCCCN)NC(=O)[C@H](Cc1ccc(O)cc1)NC(=O)CNC(=O)[C@H](Cc1c[nH]cn1)NC(=O)[C@H](Cc1c[nH]cn1)NC(=O)[C@H](CCCNC(=N)N)NC(=O)[C@H](CCCCN)NC(=O)[C@H](C)NC(=O)[C@H](Cc1c[nH]cn1)NC(=O)[C@H](CO)NC(=O)[C@@H](N)CC(=O)O)C(=O)N[C@@H](Cc1ccc(O)cc1)C(=O)N[C@@H](CC(=O)O)C(=O)N[C@@H](CC(N)=O)C(=O)O [Hst3],Ki,[1],1090 nM
C[C@H](NC(=O)[C@H](Cc1c[nH]cn1)NC(=O)[C@H](CO)NC(=O)[C@@H](N)CC(=O)O)C(=O)N[C@@H](CCCCN)C(=O)N[C@@H](CCCNC(=N)N)C(=O)N[C@@H](Cc1c[nH]cn1)C(=O)N[C@@H](Cc1c[nH]cn1)C(=O)NCC(=O)N[C@@H](Cc1ccc(O)cc1)C(=O)N[C@@H](CCCCN)C(=O)N[C@@H](CCCNC(=N)N)C(=O)N[C@@H](CCCCN)C(=O)N[C@@H](Cc1ccccc1)C(=O)N[C@@H](Cc1c[nH]cn1)C(=O)N[C@@H](CCC(=O)O)C(=O)N[C@@H](CCCCN)C(=O)N[C@@H](Cc1c[nH]cn1)C(=O)N[C@@H](Cc1c[nH]cn1)C(=O)N[C@@H](CO)C(=O)N[C@@H](Cc1c[nH]cn1)C(=O)N[C@@H](CCCNC(=N)N)C(=O)NCC(=O)N[C@@H](Cc1ccc(O)cc1)C(=O)O [Hst5],hyperosmolarity-induced apoptotic signals (Caspase 3/7),human corneal epithelium,abrogates the effects of toxic hyperosmolarity
same,calcium signaling (relative fluorescence intensity),"[2]; 1, 2 and 4 hours",increases calcium signaling
same,elevated calcium levels after benzalkonium chloride,[2]; cells treated with 0.001% BAK,reduced elevated calcium levels
same,BAK-induced loss of cell viability,[3],abrogated
same,Ki,[1],582 nM
"fluorescent dye-coupled synthetic Hst1: synthetic Hst1 coupled with ALEXA FLUOR 488 NHS Ester (D[pS]HEKRHHGYRRKFHEKHHSHREFPFYGDYGSNYLYDN; also: coupled with Alexa Fluor 488 NHS ester, site not given here; UniProt P15515 20-57, looked up)",internalization into cells,HCE cells,internalized into HCE cells
"AKRHHGYKRKFH [Histatin P-113, histatin-derived antimicrobial peptide]",fungicidal activity,Candida albicans,fungicidal activity
B1,Kd,[4],1500 nM
same,Kd,[5],2400 nM
same,Kd,[6],2400 nM
same,binding result,[7],no binding
same,Kd,[8],890 nM
same,ΔH,[9],-790 kcal/mol
same,ΔS,[9],-2280 cal/mol K
same,ΔH,[10],-4.9 kcal/mol
same,ΔS,[10],11.6 cal/mol K
same,Kd,[11],2700 nM
same,Kd,[12],460 nM
same,Kd,[13],1600 nM
same,Kd,[14],2800 nM
DSHEKRHHGYRRKFHEKHH (not fully specified (residue 2); ends and bridges not checked) [Hst1(1-19)],Kd,[4],3600 nM
same,Kd,[5],12700 nM
same,Kd,[6],8800 nM
"DSHEKRHHGYRRKF (not fully specified (residue 2); ends and bridges not checked, Fragment of Hst1) [Hst1(1-14)]",binding result,[5],no binding
same,binding result,[6],no binding
same,binding result,[7],no binding
B2,binding result,[15],no binding
"DSHEKRHHGYRRKFHEKHHSHREFPF (not fully specified (residue 2); ends and bridges not checked, Fragment of Hst1) [Hst1(1-26)]",Kd,[4],2100 nM
same,Kd,[5],1300 nM
same,Kd,[6],1700 nM
same,binding result,[7],no binding
